What was measured:
CTLA4/His [1] = target: T1, CTLA4/His (human, UniProt P16410 36-161); assay: SPR (Biacore), after AAPH oxidation, analyte CTLA4/His
T1 construct: not shown: His tag
T1 sequence (looked up): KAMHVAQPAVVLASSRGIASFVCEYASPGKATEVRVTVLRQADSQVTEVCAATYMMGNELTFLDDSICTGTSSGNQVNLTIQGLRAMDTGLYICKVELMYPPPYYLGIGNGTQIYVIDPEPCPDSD

CTLA4/His [2] = target: T1, CTLA4/His; assay: SPR, Biacore 8K, antibody captured on the chip, antigen as analyte, 1:1 binding model
[3] = target: T2, CTLA-4 on the functional cells of the Promega anti-CTLA-4 blocking assay kit (UniProt P16410 36-223, limits assumed); assay: cell-based or functional assay
T2 sequence (looked up): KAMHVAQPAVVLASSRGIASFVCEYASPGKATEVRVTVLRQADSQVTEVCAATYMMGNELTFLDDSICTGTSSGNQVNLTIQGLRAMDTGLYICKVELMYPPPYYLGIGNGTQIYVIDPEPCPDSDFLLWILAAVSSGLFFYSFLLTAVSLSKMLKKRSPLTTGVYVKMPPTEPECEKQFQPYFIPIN

CTLA4/His [4] = target: T1, CTLA4/His; assay: SPR (Biacore), untreated control of the oxidation pressure test, analyte CTLA4/His
[5] = target: T3, human CTLA4-Fc recombinant protein (human, UniProt P16410 36-161); assay: kinetics of the prokaryotic expression product, analyte CTLA4/Fc, 1:1 binding model
T3 construct: not shown: Fc part
T3 sequence (looked up): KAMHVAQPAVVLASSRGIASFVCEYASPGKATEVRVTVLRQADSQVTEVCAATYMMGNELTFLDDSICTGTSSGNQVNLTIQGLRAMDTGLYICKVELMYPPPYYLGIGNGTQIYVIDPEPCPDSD

[6] = target: T3, human CTLA4-Fc recombinant protein; assay: kinetics of the prokaryotic expression product, analyte CTLA4/Fc, 1:1 binding model; prokaryotic expression product, analyte CTLA4/Fc (Table 2)

Binder	Kd (CTLA4/His [2])	koff (CTLA4/His [2])	kon (CTLA4/His [2])	Kd [5]	other results
Chimeric antibody AAPH (chimeric antibody after the oxidation pressure test) (antibody, V domains shown, Met 63 oxidised in 62.144% of the sample (AAPH, 40 C, 24 h), Same protein as the chimeric antibody, treated with AAPH; also called Chimeric antibody AAPH-24 h) VH: QVHLQQSGDVLVKPGASVNLSCKASGYTFTSYWINWIKQRPGQGLEWIGRIAPGSGTTYYNEMFTGKATLTVVTSSTTAYIQLSSLSFEDSAVYFCARGDYFDYWDQGTTLTVSS VL: QIVLTQSPAIMSASPGGKVTITCSASKSVSYIHWFQQKPGTSPKLLIYDTSTLASGVPPRFSGSGSGPSYSLTISRMEAEDAATYYCQQRTTYPLTFGGGTKLEVR					Kd (CTLA4/His [1]): 48.7 pM; koff (CTLA4/His [1]): 2.78e-05 s⁻¹; kon (CTLA4/His [1]): 570000 M⁻¹ s⁻¹
AH01674 humanized anti-human CTLA4 monoclonal antibody (human IgG1/kappa) (antibody, V domains shown, also called AH1674) VH: QVQLVQSGAEVKKPGASVKVSCKASGYTFTSYWINWVRQAPGQGLEWMGRIAPGSGTTYYNEMFTGRVTMTRDTSTSTAYMELSSLRSEDTAVYYCARGDYFDYWGQGTMVTVSS VL: DIQLTQSPSFLSASVGDRVTITCSASKSVSYIHWYQQKPGKAPKLLIYDTSTLASGVPPRFSGSGSGPEFTLTISSLQPEDFATYYCQQRTTYPLTFGQGTKLEIK	≤ 14.2 pM	≤ 1e-05 s⁻¹	705000 M⁻¹ s⁻¹		EC50 (µg/ml), luciferase reporter, Promega anti-CTLA-4 blocking assay (CD80/CD86 aAPC/Raji cells with functional cells expressing CTLA-4) [3]: 1.11 µg/mL; Kd (CTLA4/His [4]): 39.5 pM; koff (CTLA4/His [4]): 2.98e-05 s⁻¹; kon (CTLA4/His [4]): 753000 M⁻¹ s⁻¹
AH01696 (prokaryotic expression antibody product, 5BM library) (Fab, V domains shown, Prokaryotic expression product from Phage-Fab / FASEBA-Fab plasmids) VH: VQLVQSGAEVVKPGASVKVSCKASGYTFTSYWINWIRQAPGQGLEWIGRIAPGSGTTYYNEMFTGRVTLTRDTSTSTAYMELSSLRSEDTAVYYCARGDYFDYWDQGTMVTVSS VL: DIQLTQSPSFLSASVGDRVTITCSASKSVSYIHWFQQKPGKAPKLLIYDTSTLASGVPSRFSGSGSGTEYTLTISSLQPEDFATYYCQQRTTYPLTFGQGTKLEIK				0.00373 pM	
AH01696 humanized anti-human CTLA4 monoclonal antibody (human IgG1/kappa) (antibody, V domains shown) VH: VQLVQSGAEVVKPGASVKVSCKASGYTFTSYWINWIRQAPGQGLEWIGRIAPGSGTTYYNEMFTGRVTLTRDTSTSTAYMELSSLRSEDTAVYYCARGDYFDYWDQGTMVTVSS VL: DIQLTQSPSFLSASVGDRVTITCSASKSVSYIHWFQQKPGKAPKLLIYDTSTLASGVPSRFSGSGSGTEYTLTISSLQPEDFATYYCQQRTTYPLTFGQGTKLEIK	42.9 pM	2.77e-05 s⁻¹	646000 M⁻¹ s⁻¹		
AH01674 (prokaryotic expression antibody product, CBM library) (Fab, V domains shown, Prokaryotic expression product from Phage-Fab / FASEBA-Fab plasmids) VH: QVQLVQSGAEVKKPGASVKVSCKASGYTFTSYWINWVRQAPGQGLEWMGRIAPGSGTTYYNEMFTGRVTMTRDTSTSTAYMELSSLRSEDTAVYYCARGDYFDYWGQGTMVTVSS VL: DIQLTQSPSFLSASVGDRVTITCSASKSVSYIHWYQQKPGKAPKLLIYDTSTLASGVPPRFSGSGSGPEFTLTISSLQPEDFATYYCQQRTTYPLTFGQGTKLEIK				15.4 pM	
AH01674 AAPH (AH01674 after the oxidation pressure test) (antibody, V domains shown, Met 63 oxidised in 75.616% of the sample (AAPH, 40 C, 24 h), Human IgG1/kappa, treated with AAPH; also called AH01674 AAPH-24 h) VH: QVQLVQSGAEVKKPGASVKVSCKASGYTFTSYWINWVRQAPGQGLEWMGRIAPGSGTTYYNEMFTGRVTMTRDTSTSTAYMELSSLRSEDTAVYYCARGDYFDYWGQGTMVTVSS VL: DIQLTQSPSFLSASVGDRVTITCSASKSVSYIHWYQQKPGKAPKLLIYDTSTLASGVPPRFSGSGSGPEFTLTISSLQPEDFATYYCQQRTTYPLTFGQGTKLEIK					Kd (CTLA4/His [1]): 30.5 pM; koff (CTLA4/His [1]): 2.19e-05 s⁻¹; kon (CTLA4/His [1]): 719000 M⁻¹ s⁻¹
AH01695 (prokaryotic expression antibody product, 5BM library) (Fab, V domains shown, Prokaryotic expression product from Phage-Fab / FASEBA-Fab plasmids) VH: QVQLVQSGAEVKKPGASVKVSCKASGYTFTSYWINWVRQAPGQGLEWMGRIAPGSGTTYYNEMFTGRVTLTRDTSTSTAYIELSSLRSEDTAVYFCAIGDYFDYWGQGTMVTVSS VL: DIQLTQSPSFLSASVGDRVTITCSASKSVSYIHWYQQKPGKAPKLLIYDTSTLASGVPSRFSGSGSGTEFTLTISSLQPEDFATYYCQQRTTYPLTFGQGTKLEIK				0.0106 pM	
AH01679 humanized anti-human CTLA4 monoclonal antibody (human IgG1/kappa) (antibody, V domains shown, also called AH1679) VH: QVQLVQSGAEVVKPGASVKLSCKASGYTFTSYWINWVRQAPGQGLEWIGRIAPGSGTTYYNEMFTGRVTMTRDTSTSTVYMELSSLRSEDTAVYYCARGDYFDYWGQGTMVTVSS VL: DIQLTQSPSFLSASVGDRVTITCSASKSVSYIHWYQQKPGKAPKLLIYDTSTLASGVPSRFSGSGSGTEFTLTISSLQPEDFATYYCQQRTTYPLTFGQGTKLEIK	≤ 13.4 pM	≤ 1e-05 s⁻¹	748000 M⁻¹ s⁻¹		EC50 (µg/ml), luciferase reporter, Promega anti-CTLA-4 blocking assay (CD80/CD86 aAPC/Raji cells with functional cells expressing CTLA-4) [3]: 17.1 µg/mL
AH01704 (prokaryotic expression antibody product, 5BM library) (Fab, V domains shown, Prokaryotic expression product from Phage-Fab / FASEBA-Fab plasmids) VH: QVQLVQSGAEVVKPGASVKVSCKASGYTFTSYWINWVKQAPGQGLEWMGRIAPGSGTTYYNEMFTGRVTLTRDTSTSTAYMELSSLRSEDTAVYFCARGDYFDYWGQGTMVTVSS VL: DIQLTQSPSFLSASVGDRVTITCSASKSVSYIHWYQQKPGKAPKLLIYDTSTLASGVPSRFSGSGSGTEYTLTISSLQPEDFATYYCQQRTTYPLTFGQGTKLEIK				0.019 pM	
AH01686 (prokaryotic expression antibody product, 5BM library) (Fab, V domains shown, Prokaryotic expression product from Phage-Fab / FASEBA-Fab plasmids) VH: QVQLVQSGAEVVKPGASVKVSCKASGYTFTSYWINWIKQAPGQGLEWIGRIAPGSGTTYYNEMFTGRVTLTRDTSTSTAYIELSSLRSEDTAVYFCARGDYFDYWGQGTMVTVSS VL: DIQLTQSPSFLSASVGDRVTITCSASKSVSYIHWYQQKPGKAPKLLIYDTSTLASGVPSRFSGSGSGTEFTLTISSLQPEDFATYYCQQRTTYPLTFGQGTKLEIK				0.0433 pM	
AH01686 humanized anti-human CTLA4 monoclonal antibody (human IgG1/kappa) (antibody, V domains shown) VH: QVQLVQSGAEVVKPGASVKVSCKASGYTFTSYWINWIKQAPGQGLEWIGRIAPGSGTTYYNEMFTGRVTLTRDTSTSTAYIELSSLRSEDTAVYFCARGDYFDYWGQGTMVTVSS VL: DIQLTQSPSFLSASVGDRVTITCSASKSVSYIHWYQQKPGKAPKLLIYDTSTLASGVPSRFSGSGSGTEFTLTISSLQPEDFATYYCQQRTTYPLTFGQGTKLEIK	38.8 pM	3.18e-05 s⁻¹	820000 M⁻¹ s⁻¹		
AH01695 humanized anti-human CTLA4 monoclonal antibody (human IgG1/kappa) (antibody, V domains shown, also called AH1695) VH: QVQLVQSGAEVKKPGASVKVSCKASGYTFTSYWINWVRQAPGQGLEWMGRIAPGSGTTYYNEMFTGRVTLTRDTSTSTAYIELSSLRSEDTAVYFCAIGDYFDYWGQGTMVTVSS VL: DIQLTQSPSFLSASVGDRVTITCSASKSVSYIHWYQQKPGKAPKLLIYDTSTLASGVPSRFSGSGSGTEFTLTISSLQPEDFATYYCQQRTTYPLTFGQGTKLEIK	≤ 15.3 pM	≤ 1e-05 s⁻¹	655000 M⁻¹ s⁻¹		EC50 (µg/ml), luciferase reporter, Promega anti-CTLA-4 blocking assay (CD80/CD86 aAPC/Raji cells with functional cells expressing CTLA-4) [3]: 5.46 µg/mL; Kd (CTLA4/His [4]): 59.4 pM; koff (CTLA4/His [4]): 4.55e-05 s⁻¹; kon (CTLA4/His [4]): 767000 M⁻¹ s⁻¹
AH01679 (prokaryotic expression antibody product, 5BM library) (Fab, V domains shown, Prokaryotic expression product from Phage-Fab / FASEBA-Fab plasmids) VH: QVQLVQSGAEVVKPGASVKLSCKASGYTFTSYWINWVRQAPGQGLEWIGRIAPGSGTTYYNEMFTGRVTMTRDTSTSTVYMELSSLRSEDTAVYYCARGDYFDYWGQGTMVTVSS VL: DIQLTQSPSFLSASVGDRVTITCSASKSVSYIHWYQQKPGKAPKLLIYDTSTLASGVPSRFSGSGSGTEFTLTISSLQPEDFATYYCQQRTTYPLTFGQGTKLEIK				0.0431 pM	koff [6]: < 1e-05 s⁻¹
AH01653 (prokaryotic expression antibody product, CBM library) (Fab, V domains shown) VH: QVHLVQSGAEVKKPGASVKVSCKASGYTFTSYWINWVKQAPGQGLEWMGRIAPGSGTTYYNEMFTGRVTMTRDTSTSTAYMELSSLRSEDTAVYYCARGDYFDYWDQGTMVTVSS VL: DIQLTQSPSFLSASVGDRVTITCSASKSVSYIHWYQQKPGKAPKLLIYDTSTLASGVPSRFSGSGSGPEYTLTISSLQPEDFATYYCQQRTTYPLTFGGGTKLEIK				14.9 pM	
AH01695 AAPH (AH01695 after the oxidation pressure test) (antibody, V domains shown, Met 63 oxidised in 70.898% of the sample; Met 250 (constant region of the heavy chain) oxidised in 26.143% (AAPH, 40 C, 24 h), Human IgG1/kappa, treated with AAPH; also called AH01695 AAPH-24 h) VH: QVQLVQSGAEVKKPGASVKVSCKASGYTFTSYWINWVRQAPGQGLEWMGRIAPGSGTTYYNEMFTGRVTLTRDTSTSTAYIELSSLRSEDTAVYFCAIGDYFDYWGQGTMVTVSS VL: DIQLTQSPSFLSASVGDRVTITCSASKSVSYIHWYQQKPGKAPKLLIYDTSTLASGVPSRFSGSGSGTEFTLTISSLQPEDFATYYCQQRTTYPLTFGQGTKLEIK					Kd (CTLA4/His [1]): 131 pM; koff (CTLA4/His [1]): 8.75e-05 s⁻¹; kon (CTLA4/His [1]): 670000 M⁻¹ s⁻¹
AH01672 (prokaryotic expression antibody product, CBM library) (Fab, V domains shown, Prokaryotic expression product from Phage-Fab / FASEBA-Fab plasmids) VH: QVQLVQSGAEVKKPGASVKVSCKASGYTFTSYWINWVKQAPGQGLEWMGRIAPGSGTTYYNEMFTGRVTMTRDTSTSTAYMELSSLRSEDTAVYYCARGDYFDYWDQGTMVTVSS VL: DIQLTQSPSFLSASVGDRVTITCSASKSVSYIHWYQQKPGKAPKLLIYDTSTLASGVPPRFSGSGSGPEFSLTISSLQPEDFATYYCQQRTTYPLTFGGGTKLEIK				14.5 pM	
AH01704 humanized anti-human CTLA4 monoclonal antibody (human IgG1/kappa) (antibody, V domains shown) VH: QVQLVQSGAEVVKPGASVKVSCKASGYTFTSYWINWVKQAPGQGLEWMGRIAPGSGTTYYNEMFTGRVTLTRDTSTSTAYMELSSLRSEDTAVYFCARGDYFDYWGQGTMVTVSS VL: DIQLTQSPSFLSASVGDRVTITCSASKSVSYIHWYQQKPGKAPKLLIYDTSTLASGVPSRFSGSGSGTEYTLTISSLQPEDFATYYCQQRTTYPLTFGQGTKLEIK	14.4 pM	1.12e-05 s⁻¹	780000 M⁻¹ s⁻¹		

— patent publication US20210301021A1 (NANJING GENSCRIPT BIOTECH, published 2021)
